According to US20240368354A1, “STEROID ACID-BASED HYDROGELS” (priority 2021, published 2024):
Where a SMILES comes first, the peptide text is derived from it. Bridges are numbered along the chain shown (N, C = ends). Roman numbers before positions name the chains, in order. Where no end group is shown, it is not given here. The star is where a group is joined. Chenodeoxycholyl = C[C@H](CCC(=O)*)[C@H]1CC[C@H]2[C@@H]3[C@H](O)C[C@@H]4C[C@H](O)CC[C@]4(C)[C@H]3CC[C@]12C; Cholyl = C[C@H](CCC(=O)*)[C@H]1CC[C@H]2[C@@H]3[C@H](O)C[C@@H]4C[C@H](O)CC[C@]4(C)[C@H]3C[C@H](O)[C@]12C

Columns and labels:
[1] = system: JIMT1 cells (breast cancer cell line); assay: Cell cytotoxicity assay (PrestoBlue); type: cell-based; conditions: for toxicity of dimer hydrogels compared with monomers: cells treated three days, PrestoBlue, dimers versus monomers
Protocol: 5000 JIMT1 cells (breast cancer cell line) per well (96-well plate) were plated. After one day, cells were treated with the different steroid acid-peptide conjugates or hydrogels for three days. Cell survival was determined by PrestoBlue™ following the manufacturer's protocol.
Hydrogels are commonly used for drug delivery and in vivo applications, and therefore assessing their safety profiles is highly pertinent. Cytotoxicity of hydrogels was evaluated via a cytotoxicity assay by incubating cells with hydrogels formed by monomers or steroid acid-peptide conjugates, as described in Example 1.

[2] = Hydrogel formation of steroid acid-peptide monomer conjugates upon resuspension in solvent; type: physicochemical; conditions: for hydrogel formation: 6.67 mg/ml, cell medium (complete DMEM with human cells), 2 hours of incubation
Protocol: Specific hydrogel formation was conducted by resuspending the powder of each steroid acid-peptide monomer or dimer conjugate in phosphate buffered saline (PBS) 1X (pH 7.4), pure water, complete cell medium (DMEM), DMSO, or alcohol:water mixtuLes (e.g., methanol:water (40:60)) at room temperature or 37° C. at a concentration between 6-30 mg/mL.
Hydrogel formation was evaluated upon dissolution of the different peptide or steroid acid-peptide conjugates described in FIG. 1 in different solvents. […] Hydrogel structure (soft vs. hard) and color/clarity (translucent vs. opaque) varied among the different conditions. […] At concentrations lower than 10 mg/mL, all steroid acid-hnRNPA1 NLS conjugates tested formed liquid droplets in PBS at room temperature. Monomers of GWG-SV40NLS conjugated to steroid acids were also shown to form hydrogels (data not shown).

[3] = monomers, room temperature and 37° C.

In the case of `CSCC[C@H](NC(=O)[C@@H]1CCCN1C(=O)CNC(=O)[C@H](Cc1ccccc1)NC(=O)[C@H](CC(N)=O)NC(=O)[C@H](CO)NC(=O)[C@H](CS)NC(=O)CC[C@@H](C)[C@H]1CC[C@H]2[C@@H]3[C@H](O)C[C@@H]4C[C@H](O)CC[C@]4(C)[C@H]3CC[C@]12C)C(=O)N[C@@H](CCCCN)C(=O)NCC(=O)NCC(=O)N[C@@H](CC(N)=O)C(=O)N[C@@H](Cc1ccccc1)C(=O)NCC(=O)NCC(=O)N[C@@H](CCCNC(=N)N)C(=O)N[C@@H](CO)C(=O)N[C@@H](CO)C(=O)NCC(=O)N1CCC[C@H]1C(=O)N[C@@H](Cc1ccc(O)cc1)C(N)=O` [CDCA-hnRNPA1 M9 NLS] (Chenodeoxycholyl-CSNFGPMKGGNFGGRSSGPY-NH2), the “concentrations at which viability of cells was reduced” value ([1]; JIMT1 cells, three days treatment, hydrogels formed by monomers) is reported as “higher than 10 μg/mL”.
For `CSCC[C@H](NC(=O)[C@H](CSSC[C@H](NC(=O)CC[C@@H](C)[C@H]1CC[C@H]2[C@@H]3[C@H](O)C[C@@H]4C[C@H](O)CC[C@]4(C)[C@H]3C[C@H](O)[C@]12C)C(=O)N[C@@H](CCSC)C(=O)NCC(=O)N[C@@H](CCCNC(=N)N)C(=O)N[C@H](C(=O)N[C@@H](CCCNC(=N)N)C(=O)N[C@H](C(=O)N[C@@H](CCCCN)C(=O)N[C@H](C(=O)N[C@H](C(=O)N[C@@H](CCCCN)C(=O)N[C@@H](CCCCN)C(=O)N[C@@H](C)C(=O)N[C@@H](C)C(=O)NCC(=O)NCC(N)=O)C(C)C)[C@@H](C)O)[C@@H](C)O)C(C)C)NC(=O)CC[C@@H](C)[C@H]1CC[C@H]2[C@@H]3[C@H](O)C[C@@H]4C[C@H](O)CC[C@]4(C)[C@H]3C[C@H](O)[C@]12C)C(=O)NCC(=O)N[C@@H](CCCNC(=N)N)C(=O)N[C@H](C(=O)N[C@@H](CCCNC(=N)N)C(=O)N[C@H](C(=O)N[C@@H](CCCCN)C(=O)N[C@H](C(=O)N[C@H](C(=O)N[C@@H](CCCCN)C(=O)N[C@@H](CCCCN)C(=O)N[C@@H](C)C(=O)N[C@@H](C)C(=O)NCC(=O)NCC(N)=O)C(C)C)[C@@H](C)O)[C@@H](C)O)C(C)C` [dimerized CA-NLS1 RPS17] (I: Cholyl-CMGRVRTKTVKKAAGG-NH2 / II: Cholyl-CMGRVRTKTVKKAAGG-NH2; disulfide I:1-II:1), the “toxicity of dimer hydrogels compared with monomers” value [1] was “significantly less toxic”.
For “GUDCA-hnRNPA1 NLS: glycoursodeoxycholic acid (GUDCA) conjugated to hnRNPA1 M9 NLS peptide (SEQ ID NO: 4) (SNFGPMKGGNFGGRSSGPY; also: glycoursodeoxycholic acid (GUDCA) conjugate, site not given here)”, the “incubation time after which a hydrogel formed” value ([2]; 20 mg/ml in pure water, room temperature) was 1 to 3 h and the hydrogel formation [2, 3] was “formed a hydrogel”.
With “CA-Melittin: cholic acid conjugated to the peptide melittin (SEQ ID NO: 16)” the “hydrogel formation in monomer form” value [2] was “not able to form a hydrogel”.
In the case of “LCA-hnRNPA1 NLS: lithocholic acid (LCA) conjugated to hnRNPA1 M9 NLS peptide (SEQ ID NO: 4) (SNFGPMKGGNFGGRSSGPY; also: lithocholic acid (LCA) conjugate, site not given here)”, the “hydrogel formation following resuspension” value ([2]; monomers, 25 mg/mL in PBS 1X (pH 7.4), room temperature) is reported as “a hydrogel spontaneously formed within a matter of seconds”.
In the case of “CA-NLS1 RPS17: cholic acid conjugated to NLS1 RPS17 peptide (SEQ ID NO: 9) (MGRVRTKTVKKAAGG; also: cholic acid conjugate, site not given here)”, the “hydrogel formation in monomer form” value [2] is reported as “not observed to form a hydrogel”.
With `CSCC[C@H](NC(=O)[C@@H]1CCCN1C(=O)CNC(=O)[C@H](Cc1ccccc1)NC(=O)[C@H](CC(N)=O)NC(=O)[C@H](CO)NC(=O)[C@H](CSSC[C@H](NC(=O)CC[C@@H](C)[C@H]1CC[C@H]2[C@@H]3[C@H](O)C[C@@H]4C[C@H](O)CC[C@]4(C)[C@H]3CC[C@]12C)C(=O)N[C@@H](CO)C(=O)N[C@@H](CC(N)=O)C(=O)N[C@@H](Cc1ccccc1)C(=O)NCC(=O)N1CCC[C@H]1C(=O)N[C@@H](CCSC)C(=O)N[C@@H](CCCCN)C(=O)NCC(=O)NCC(=O)N[C@@H](CC(N)=O)C(=O)N[C@@H](Cc1ccccc1)C(=O)NCC(=O)NCC(=O)N[C@@H](CCCNC(=N)N)C(=O)N[C@@H](CO)C(=O)N[C@@H](CO)C(=O)NCC(=O)N1CCC[C@H]1C(=O)N[C@@H](Cc1ccc(O)cc1)C(N)=O)NC(=O)CC[C@@H](C)[C@H]1CC[C@H]2[C@@H]3[C@H](O)C[C@@H]4C[C@H](O)CC[C@]4(C)[C@H]3CC[C@]12C)C(=O)N[C@@H](CCCCN)C(=O)NCC(=O)NCC(=O)N[C@@H](CC(N)=O)C(=O)N[C@@H](Cc1ccccc1)C(=O)NCC(=O)NCC(=O)N[C@@H](CCCNC(=N)N)C(=O)N[C@@H](CO)C(=O)N[C@@H](CO)C(=O)NCC(=O)N1CCC[C@H]1C(=O)N[C@@H](Cc1ccc(O)cc1)C(N)=O` [Dimerized CDCA-hnRNPA1 M9 NLS] (I: Chenodeoxycholyl-CSNFGPMKGGNFGGRSSGPY-NH2 / II: Chenodeoxycholyl-CSNFGPMKGGNFGGRSSGPY-NH2; disulfide I:1-II:1) the cell viability ([1]; JIMT1 cells, three days treatment, all concentrations tested up to 100 μg/mL) was “Viability was maintained”.
For `CC[C@H](C)[C@H](NC(=O)CNC(=O)[C@H](CSSC[C@H](NC(=O)CC[C@@H](C)[C@H]1CC[C@H]2[C@@H]3[C@H](O)C[C@@H]4C[C@H](O)CC[C@]4(C)[C@H]3C[C@H](O)[C@]12C)C(=O)NCC(=O)N[C@H](C(=O)NCC(=O)N[C@@H](C)C(=O)N[C@H](C(=O)N[C@@H](CC(C)C)C(=O)N[C@@H](CCCCN)C(=O)N[C@H](C(=O)N[C@@H](CC(C)C)C(=O)N[C@H](C(=O)N[C@H](C(=O)NCC(=O)N[C@@H](CC(C)C)C(=O)N1CCC[C@H]1C(=O)N[C@@H](C)C(=O)N[C@@H](CC(C)C)C(=O)N[C@H](C(=O)N[C@@H](CO)C(=O)N[C@@H](Cc1c[nH]c2ccccc12)C(=O)N[C@H](C(=O)N[C@@H](CCCCN)C(=O)N[C@@H](CCCNC(=N)N)C(=O)N[C@@H](CCCCN)C(=O)N[C@@H](CCCNC(=N)N)C(=O)N[C@@H](CCC(N)=O)C(=O)N[C@@H](CCC(N)=O)C(N)=O)[C@@H](C)CC)[C@@H](C)CC)[C@@H](C)O)[C@@H](C)O)C(C)C)C(C)C)[C@@H](C)CC)NC(=O)CC[C@@H](C)[C@H]1CC[C@H]2[C@@H]3[C@H](O)C[C@@H]4C[C@H](O)CC[C@]4(C)[C@H]3C[C@H](O)[C@]12C)C(=O)NCC(=O)N[C@@H](C)C(=O)N[C@H](C(=O)N[C@@H](CC(C)C)C(=O)N[C@@H](CCCCN)C(=O)N[C@H](C(=O)N[C@@H](CC(C)C)C(=O)N[C@H](C(=O)N[C@H](C(=O)NCC(=O)N[C@@H](CC(C)C)C(=O)N1CCC[C@H]1C(=O)N[C@@H](C)C(=O)N[C@@H](CC(C)C)C(=O)N[C@H](C(=O)N[C@@H](CO)C(=O)N[C@@H](Cc1c[nH]c2ccccc12)C(=O)N[C@H](C(=O)N[C@@H](CCCCN)C(=O)N[C@@H](CCCNC(=N)N)C(=O)N[C@@H](CCCCN)C(=O)N[C@@H](CCCNC(=N)N)C(=O)N[C@@H](CCC(N)=O)C(=O)N[C@@H](CCC(N)=O)C(N)=O)[C@@H](C)CC)[C@@H](C)CC)[C@@H](C)O)[C@@H](C)O)C(C)C)C(C)C` [dimerized CA-Melittin], the “toxicity of dimer hydrogels compared with monomers” value [1] was “significantly less toxic”.
With “GCDCA-hnRNPA1 NLS: glycochenodeoxycholic acid (GCDCA) conjugated to hnRNPA1 M9 NLS peptide (SEQ ID NO: 4) (SNFGPMKGGNFGGRSSGPY; also: glycochenodeoxycholic acid (GCDCA) conjugate, site not given here)” the “time after which hydrogel formation was induced” value ([2]; monomer, final concentration 6.67 mg/mL, complete DMEM containing human cells, room temperature and 37° C.) was 30 min and the hydrogel formation [2, 3] was “formed a hydrogel”.
With “GDCA-hnRNPA1 NLS: glycodeoxycholic acid (GDCA) conjugated to hnRNPA1 M9 NLS peptide (SEQ ID NO: 4) (SNFGPMKGGNFGGRSSGPY; also: glycodeoxycholic acid (GDCA) conjugate, site not given here)” the hydrogel formation [2, 3] was “formed a hydrogel”.
